According to publication PMC4506780:

Substrate: c1ccc2c3c([nH]c2c1)CNCC3
Assay: steady-state kinetics of chlorination
Format: biochemical, Lentzea aerocolonigenes
Settings: cofactor regeneration as in Scheme 2

B1: RebH (Lentzea aerocolonigenes; K145M/M71V/S2P) (protein)
chain: MPGKIDKILIVGGGTAGWMAASYLGKALQGTADITLLQAPDIPTLGVGEATIPNLQTAFFDFLGIPEDEWVRECNASYKVAIKFINWRTAGEGTSEARELDGGPDHFYHSFGLLKYHEQIPLSHYWFDRSYRGKTVEPFDYACYMEPVILDANRSPRRLDGSKVTNYAWHFDAHLVADFLRRFATEKLGVRHVEDRVEHVQRDANGNIESVRTATGRVFDADLFVDCSGFRGLLINKAMEEPFLDMSDHLLNDSAVATQVPHDDDANGVEPFTSAIAMKSGWTWKIPMLGRFGTGYVYSSRFATEDEAVREFCEMWHLDPETQPLNRIRFRVGRNRRAWVGNCVSIGTSSCFVEPLESTGIYFVYAALYQLVKHFPDKSLNPVLTARFNREIETMFDDTRDFIQAHFYFSPRTDTPFWRANKELRLADGMQEKIDMYRAGMAINAPASDDAQLYYGNFEEEFRNFWNNSNYYCVLAGLGLVPDAPSPRLAHMPQATESVDEVFGAVKDRQRNLLETLPSLHEFLRQQHGR
Variant 1-PVM, 5 mol% enzyme
  Km: 215 µM
  kcat: 0.000667 s⁻¹
  kcat/Km: 3.1 M⁻¹ s⁻¹

B2: RebH (Lentzea aerocolonigenes; K145M/M71V/N467T/S2P) (protein)
chain: MPGKIDKILIVGGGTAGWMAASYLGKALQGTADITLLQAPDIPTLGVGEATIPNLQTAFFDFLGIPEDEWVRECNASYKVAIKFINWRTAGEGTSEARELDGGPDHFYHSFGLLKYHEQIPLSHYWFDRSYRGKTVEPFDYACYMEPVILDANRSPRRLDGSKVTNYAWHFDAHLVADFLRRFATEKLGVRHVEDRVEHVQRDANGNIESVRTATGRVFDADLFVDCSGFRGLLINKAMEEPFLDMSDHLLNDSAVATQVPHDDDANGVEPFTSAIAMKSGWTWKIPMLGRFGTGYVYSSRFATEDEAVREFCEMWHLDPETQPLNRIRFRVGRNRRAWVGNCVSIGTSSCFVEPLESTGIYFVYAALYQLVKHFPDKSLNPVLTARFNREIETMFDDTRDFIQAHFYFSPRTDTPFWRANKELRLADGMQEKIDMYRAGMAINAPASDDAQLYYGNFEEEFRNFWTNSNYYCVLAGLGLVPDAPSPRLAHMPQATESVDEVFGAVKDRQRNLLETLPSLHEFLRQQHGR
Variant 2-T, 3 mol% enzyme
  Km: 236 µM
  kcat: 0.000933 s⁻¹
  kcat/Km: 3.95 M⁻¹ s⁻¹
